This is an account of results in article PMC10939263.

One experiment concerns the target N1-fused SRC kinases. The experiment can be described thus: split reporter (BiFC, NanoBiT); Gaussia princeps luciferase complementation assay in human HEK293T cells; Gluc2 at the N terminus of SKAP1 or SKAP2 (N2), Gluc1 at the N terminus (N1) or C terminus (C1) of the SRC kinase; 100 ng plasmid pair, PEI; luminescence read in lysate one day later; normalized luminescence ratio (NLR), given relative to wild type or to SKAP2.

For the next experiment, the target named is C1-fused SRC kinases. The experiment is described as above.

B1: SKAP1 DomDIM mutant, N2-fused (domain or fragment)
chain: MQAAALPEEIRWLLEDAEEFLAEGLRNENLSAVARDHRDHILRGFQQIKARYYWDFQPQGGDIGQDSSDDNHSGTLGLSLTSDAPFLSDYQDEGMEDIV
For the molecule B1, the wild-type normalized NLR, mean over SRC kinases with N1-fused SRC kinases was 0.11; with C1-fused SRC kinases, 0.32.

B2: SKAP1 D120K mutant, N2-fused (natural protein)
chain: MQAAALPEEIRWLLEDAEEFLAEGLRNENLSAVARDHRDHILRGFQQIKARYYWDFQPQGGDIGQDSSDDNHSGTLGLSLTSDAPFLSDYQDEGMEDIVKGAQELDNVIKQGYLEKKSKKHSFFGSEWQKRWCVVSRGLFYYYANEKSKQPKGTFLIKGYGVRMAPHLRRDSKKESCFELTSQDRRSYEFTATSPAEARDWVDQISFLLKDLSSLTIPYEEDEEEEEKEETYDDIDGFDSPSCGSQCRPTILPGSVGIKEPTEEKEEEDIYEVLPDEEHDLEEDESGTRRKGVDYASYYQGLWDCHGDQPDELSFQRGDLIRILSKEYNMYGWWVGELNSLVGIVPKEYLTTAFEVEER
Consider B2, for which the wild-type normalized NLR, mean over SRC kinases with N1-fused SRC kinases was determined as 1.17; with C1-fused SRC kinases, 1.49.

B3: SKAP1 W333K mutant, N2-fused (natural protein)
chain: MQAAALPEEIRWLLEDAEEFLAEGLRNENLSAVARDHRDHILRGFQQIKARYYWDFQPQGGDIGQDSSDDNHSGTLGLSLTSDAPFLSDYQDEGMEDIVKGAQELDNVIKQGYLEKKSKDHSFFGSEWQKRWCVVSRGLFYYYANEKSKQPKGTFLIKGYGVRMAPHLRRDSKKESCFELTSQDRRSYEFTATSPAEARDWVDQISFLLKDLSSLTIPYEEDEEEEEKEETYDDIDGFDSPSCGSQCRPTILPGSVGIKEPTEEKEEEDIYEVLPDEEHDLEEDESGTRRKGVDYASYYQGLWDCHGDQPDELSFQRGDLIRILSKEYNMYGKWVGELNSLVGIVPKEYLTTAFEVEER
For B3, the wild-type normalized NLR, mean over SRC kinases with N1-fused SRC kinases is 1.16; with C1-fused SRC kinases, 1.24.

B4: SKAP1 ΔSH3 mutant, N2-fused (domain or fragment)
chain: MQAAALPEEIRWLLEDAEEFLAEGLRNENLSAVARDHRDHILRGFQQIKARYYWDFQPQGGDIGQDSSDDNHSGTLGLSLTSDAPFLSDYQDEGMEDIVKGAQELDNVIKQGYLEKKSKDHSFFGSEWQKRWCVVSRGLFYYYANEKSKQPKGTFLIKGYGVRMAPHLRRDSKKESCFELTSQDRRSYEFTATSPAEARDWVDQISFLLKDLSSLTIPYEEDEEEEEKEETYDDIDGFDSPSCGSQCRPTILPGSVGIKEPTEEKEEEDIYEVLPDEEHDLEEDESGTRRK
In the case of B4, the values for the wild-type normalized NLR, mean over SRC kinases with N1-fused SRC kinases and with C1-fused SRC kinases were 1.51 and 2.53, respectively.

B5: SKAP1 ΔPH deletion mutant, N2-fused (natural protein)
chain: MQAAALPEEIRWLLEDAEEFLAEGLRNENLSAVARDHRDHILRGFQQIKARYYWDFQPQGGDIGQDSSDDNHSGTLGLSLTSDAPFLSDYQDEGMEDIVKGAQELDDLSSLTIPYEEDEEEEEKEETYDDIDGFDSPSCGSQCRPTILPGSVGIKEPTEEKEEEDIYEVLPDEEHDLEEDESGTRRKGVDYASYYQGLWDCHGDQPDELSFQRGDLIRILSKEYNMYGWWVGELNSLVGIVPKEYLTTAFEVEER
Regarding B5, the wild-type normalized NLR, mean over SRC kinases with N1-fused SRC kinases was found to be 1.35; in the experiment with C1-fused SRC kinases, 0.87.

B6: SKAP1 ΔLink1PH deletion mutant, N2-fused (natural protein)
chain: MQAAALPEEIRWLLEDAEEFLAEGLRNENLSAVARDHRDHILRGFQQIKARYYWDFQPQGGDIGQDDLSSLTIPYEEDEEEEEKEETYDDIDGFDSPSCGSQCRPTILPGSVGIKEPTEEKEEEDIYEVLPDEEHDLEEDESGTRRKGVDYASYYQGLWDCHGDQPDELSFQRGDLIRILSKEYNMYGWWVGELNSLVGIVPKEYLTTAFEVEER
Turning to B6, the wild-type normalized NLR, mean over SRC kinases came out at 1.57 with N1-fused SRC kinases and 0.96 in the experiment with C1-fused SRC kinases.

B7: SKAP1 Link2SH3 mutant, N2-fused (domain or fragment)
chain: SSLTIPYEEDEEEEEKEETYDDIDGFDSPSCGSQCRPTILPGSVGIKEPTEEKEEEDIYEVLPDEEHDLEEDESGTRRKGVDYASYYQGLWDCHGDQPDELSFQRGDLIRILSKEYNMYGWWVGELNSLVGIVPKEYLTTAFEVEE
As for B7, the wild-type normalized NLR, mean over SRC kinases with N1-fused SRC kinases turned out to be 0.29; with C1-fused SRC kinases it was 0.51.
